Biological target: T1, CheY complexed with the unlinked CheA P2 domain (E. coli, UniProt P0AE67 1-129; P07363 156-229)
T1 sequence (looked up) 1: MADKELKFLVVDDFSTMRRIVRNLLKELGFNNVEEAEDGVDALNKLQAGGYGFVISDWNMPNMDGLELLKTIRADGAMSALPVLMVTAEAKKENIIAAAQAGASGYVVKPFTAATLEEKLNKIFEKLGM
T1 sequence (looked up) 2: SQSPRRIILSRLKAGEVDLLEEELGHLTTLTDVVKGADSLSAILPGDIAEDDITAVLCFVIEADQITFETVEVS
Assay: NMR titration

Kd: ~4.5 mM
B1: CheA P1 domain (residues 1-134) (domain or fragment, E. coli, UniProt P07363 1-134, looked up)
chain: MSMDISDFYQTFFDEADELLADMEQHLLVLQPEAPDAEQLNAIFRAAHSIKGGAGTFGFSVLQETTHLMENLLDEARRGEMQLNTDIINLFLETKDIMQEQLDAYKQSQEPDAASFDYICQALRQLALEAKGET

From paper PMC3365488 (Biochemistry, 2012)
